US20160122768

T1: phospho-SRC Y527 peptide [H-TSTEPQ-pY-QPGENL-OH]
T1 chain: TSTEPQYQPGENL

B1: C-terminally HA-tagged wild type (WT) RPTPκ (NM 008983.2), full-length, immunoprecipitated from COS-1 cells (protein)
chain: ALGQFSAGGCTFDDGPGACDYHQDLYDDFEWVHVSAQEPHYLPPEMPQGSYMVVDSSNHDPGEKARLQLPTMKENDTHCIDFSYLLYSQKGLNPGTLNILVRVNKGPLANPIWNVTGFTGRDWLRAELAVSTFWPNEYQVIFEAEVSGGRSGYIAIDDIQVLSYPCDKSPHFLRLGDVEVNAGQNATFQCIATGRDAVHNKLWLQRRNGEDIPVAQTKNINHRRFAASFRLQEVTKTDQDLYRCVTQSERGSGVSNFAQLIVREPPRPIAPPQLLGVGPTYLLIQLNANSIIGDGPIILKEVEYRMTSGSWTETHAVNAPTYKLWHLDPDTEYEIRVLLTRPGEGGTGLPGPPLITRTKCAEPMRTPKTLKIAEIQARRIAVDWESLGYNITRCHTFNVTICYHYFRGHNESRADCLDMDPKAPQHVVNHLPPYTNVSLKMILTNPEGRKESEETIIQTDEDVPGPVPVKSLQGTSFENKIFLNWKEPLEPNGIITQYEVSYSSIRSFDPAVPVAGPPQTVSNLWNSTHHVFMHLHPGTTYQFFIRASTVKGFGPATAINVTTNISAPSLPDYEGVDASLNETATTITVLLRPAQAKGAPISAYQIVVEQLHPHRTKREAGAMECYQVPVTYQNALSGGAPYYFAAELPPGNLPEPAPFTVGDNRTYKGFWNPPLAPRKGYNIYFQAMSSVEKETKTQCVRIATKAAATEEPEVIPDPAKQTDRVVKIAGISAGILVFILLLLVVIVIVKKSKLAKKRKDAMGNTRQEMTHMVNAMDRSYADQSTLHAEDPLSLTFMDQHNFSPRLPNDPLVPTAVLDENHSATAESSRLLDVPRYLCEGTESPYQTGQLHPAIRVADLLQHINLMKTSDSYGFKEEYESFFEGQSASWDVAKKDQNRAKNRYGNIIAYDHSRVILQPVEDDPSSDYINANYIDIWLYRDGYQRPSHYIATQGPVHETVYDFWRMVWQEQSACIVMVTNLVEVGRVKCYKYWPDDTEVYGDFKVTCVEMEPLAEYVVRTFTLERRGYNEIREVKQFHFTGWPDHGVPYHATGLLSFIRRVKLSNPPSAGPIVVHCSAGAGRTGCYIVIDIMLDMAEREGVVDIYNCVKALRSRRINMVQTEEQYIFIHDAILEACLCGETAIPVCEFKAAYFDMIRIDSQTNSSHLKDEFQTLNSVTPRLQAEDCSIACLPRNHDKNRFMDMLPPDRCLPFLITIDGESSNYINAALMDSYRQPAAFIVTQYPLPNTVKDFWRLVYDYGCTSIVMLNEVDLSQGCPQYWPEEGMLRYGPIQVECMSCSMDCDVINRIFRICNLTRPQEGYLMVQQFQYLGWASHREVPGSKRSFLKLILQVEKWQEECEEGEGRTIIHCLNGGGRSGMFCAIGIVVEMVKRQNVVDVFHAVKTLRNSKPNMVEAPEQYRFCYDVALEYLESS
B2: RPTPκ (endogenous, in human RA FLS and RA synovial tissue) (protein)
chain: AQGQFSAGGCTFDDGPGACDYHQDLYDDFEWVHVSAQEPHYLPPEMPQGSYMIVDSSDHDPGEKARLQLPTMKENDTHCIDFSYLLYSQKGLNPGTLNILVRVNKGPLANPIWNVTGFTGRDWLRAELAVSTFWPNEYQVIFEAEVSGGRSGYIAIDDIQVLSYPCDKSPHFLRLGDVEVNAGQNATFQCIATGRDAVHNKLWLQRRNGEDIPVAQTKNINHRRFAASFRLQEVTKTDQDLYRCVTQSERGSGVSNFAQLIVREPPRPIAPPQLLGVGPTYLLIQLNANSIIGDGPIILKEVEYRMTSGSWTETHAVNAPTYKLWHLDPDTEYEIRVLLTRPGEGGTGLPGPPLITRTKCAEPMRTPKTLKIAEIQARRIAVDWESLGYNITRCHTFNVTICYHYFRGHNESKADCLDMDPKAPQHVVNHLPPYTNVSLKMILTNPEGRKESEETIIQTDEDVPGPVPVKSLQGTSFENKIFLNWKEPLDPNGIITQYEISYSSIRSFDPAVPVAGPPQTVSNLWNSTHHVFMHLHPGTTYQFFIRASTVKGFGPATAINVTTNISAPTLPDYEGVDASLNETATTITVLLRPAQAKGAPISAYQIVVEELHPHRTKREAGAMECYQVPVTYQNAMSGGAPYYFAAELPPGNLPEPAPFTVGDNRTYQGFWNPPLAPRKGYNIYFQAMSSVEKETKTQCVRIATKAATEEPEVIPDPAKQTDRVVKIAGISAGILVFILLLLVVILIVKKSKLAKKRKDAMGNTRQEMTHMVNAMDRSYADQSTLHAEDPLSITFMDQHNFSPRYENHSATAESSRLLDVPRYLCEGTESPYQTGQLHPAIRVADLLQHINLMKTSDSYGFKEEYESFFEGQSASWDVAKKDQNRAKNRYGNIIAYDHSRVILQPVEDDPSSDYINANYIDGYQRPSHYIATQGPVHETVYDFWRMIWQEQSACIVMVTNLVEVGRVKCYKYWPDDTEVYGDFKVTCVEMEPLAEYVVRTFTLERRGYNEIREVKQFHFTGWPDHGVPYHATGLLSFIRRVKLSNPPSAGPIVVHCSAGAGRTGCYIVIDIMLDMAEREGVVDIYNCVKALRSRRINMVQTEEQYIFIHDAILEACLCGETAIPVCEFKAAYFDMIRIDSQTNSSHLKDEFQTLNSVTPRLQAEDCSIACLPRNHDKNRFMDMLPPDRCLPFLITIDGESSNYINAALMDSYRQPAAFIVTQYPLPNTVKDFWRLVYDYGCTSIVMLNEVDLSQGCPQYWPEEGMLRYGPIQVECMSCSMDCDVINRIFRICNLTRPQEGYLMVQQFQYLGWASHREVPGSKRSFLKLILQVEKWQEECEEGEGRTIIHCLNGGGRSGMFCAIGIVVEMVKRQNVVDVFHAVKTLRNSKPNMVEAPEQYRFCYDVALEYLESS

Columns and labels:
[1] = biological target: T1, phospho-SRC Y527 peptide …
[2] = biological target: SRC (endogenous, from RA FLS lysates), P12931

Protein | in vitro dephosphorylation of the SRC phospho-Y527 peptide (PTP assay, Biomol Green, absorbance at 620 nm) [1] | basal phosphorylation of SRC Y527 in RA FLS after PTPRK knockdown (Western blotting) [2]
B1 | full-length RPTPk immunoprecipitated from COS-1 cells in vitro dephosphorylated a SRC phospho-Y527 peptide | 
B2 |  | RA FLS treated with PTPRK ASO showed increased basal phosphorylation of SRC Y527
